Experimental findings from patent publication US20220204624A1 (Xencor, published 2022) are described below.

In one assay the target is T1, cynomolgus PD-1 (cynomolgus, UniProt B0LAJ3 25-170).
T1 construct: also called cyno PD-1; not shown: carrier of the soluble construct (His tag or Fc)
In words: Octet (BLI), global fit, 1:1 binding model. For orientation: Biolayer interferometry detects binding as a change in optical thickness at a sensor tip.

Another assay addresses human CTLA-4 (human, UniProt P16410 36-161, limits assumed). As to the kind of experiment: Octet (BLI), global fit, 1:1 binding model.
Another assay has as its target cynomolgus CTLA-4 (cynomolgus, UniProt G7PL88 36-161). As to the kind of experiment: Octet (BLI), global fit, 1:1 binding model.
A further assay addresses human PD-1 (human, UniProt Q15116 25-167, limits assumed). As to the kind of experiment: Octet (BLI), global fit, 1:1 binding model.
The target of assay [1] is T2, His-tagged human PD-1 (human, UniProt Q15116 25-167, limits assumed).
T2 construct: also called PD-1-His; huPD-1-His; not shown: histidine tag
T2 sequence (Q15116 25-167 limits assumed): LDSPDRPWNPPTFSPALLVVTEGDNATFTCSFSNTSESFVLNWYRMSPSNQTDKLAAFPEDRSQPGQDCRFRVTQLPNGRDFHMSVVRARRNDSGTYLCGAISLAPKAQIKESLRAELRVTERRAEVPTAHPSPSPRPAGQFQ
As to the kind of experiment: Biacore (SPR), mAb captured on Protein A chip, histidine-tagged human PD-1 as analyte.

In assay [2] the target is T2, His-tagged human PD-1. As to the kind of experiment: Octet, antibody on AHC biosensors, His-tagged PD-1 as analyte.
In assay [3] the target is T2, His-tagged human PD-1. In words: Octet, His-tagged PD-1 as analyte.
In assay [4] the target is T2, His-tagged human PD-1. As to the kind of experiment: Octet, antibody on AHC biosensors, His-tagged human PD-1 as analyte.

Sequence of cynomolgus CTLA-4 (G7PL88 entry or part of it limits assumed, form in doubt): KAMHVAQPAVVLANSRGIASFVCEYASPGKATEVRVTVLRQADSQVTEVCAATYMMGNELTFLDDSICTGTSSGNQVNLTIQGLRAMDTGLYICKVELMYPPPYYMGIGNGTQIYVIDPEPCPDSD
T1 sequence (B0LAJ3 entry or part of it limits assumed, form in doubt): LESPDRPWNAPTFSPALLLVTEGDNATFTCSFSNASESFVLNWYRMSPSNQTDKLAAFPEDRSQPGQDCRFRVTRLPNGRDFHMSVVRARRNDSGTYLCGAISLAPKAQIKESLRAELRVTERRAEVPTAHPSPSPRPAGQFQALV
Sequence of human CTLA-4 (P16410 36-161 limits assumed): as the sequence (G7PL88 entry or part of it limits assumed, form in doubt) above, with N14S, M106L counted along it
Sequence of human PD-1 (Q15116 25-167 limits assumed): as the sequence (Q15116 25-167 limits assumed) above

B1: XmAb20717 (bispecific antibody)
chain 1: not shown
chain 2: EIVLTQSPATLSASPGERVTLTCRASQSVGNDVAWYQQKPGQAPRLLINYASHRYTGVPDRFTGSGYGTEFTLTISSVQSEDFGVYYCQQDFSSPRTFGGGTKVEIKGKPGSGKPGSGKPGSGKPGSEVQLVESGGGLVKPGGSLRLSCVASGFTFSNYWMNWVRQAPGKGLEWVAEIRLYSNNYATHYAESVKGRFTISRDDSKSTLYLQMNNLKTEDTGVYYCTRYYGNYGGYFDVWGRGTLVTVSSEPKSSDKTHTCPPCPAPPVAGPSVFLFPPKPKDTLMISRTPEVTCVVVDVKHEDPEVKFNWYVDGVEVHNAKTKPREEQYNSTYRVVSVLTVLHQDWLNGKEYKCKVSNKALPAPIEKTISKAKGQPREPQVYTLPPSREQMTKNQVKLTCLVKGFYPSDIAVEWESNGQPENNYKTTPPVLDSDGSFFLYSKLTVDKSRWQQGNVFSCSVLHEALHSHYTQKSLSLSPGK
chain 3: not shown
The term Kd denotes the equilibrium constant for the complex coming apart. The low end stands for tighter binding, the high end for weaker binding. Take B1: the Kd is 5.5 nM with cynomolgus PD-1, about 4.1 nM with human CTLA-4, about 23 nM in the assay with cynomolgus CTLA-4 and 1.4 nM with human PD-1.

B2: XENP22553 (antibody, V domains shown)
VH: QIQLVQSGSELKKPGASVKVSCKASGYTFTHYGMNWVRQAPGQGLEWMGWINTYTGEPTYADGFTGRFVFSLDTSVSTAYLQISSLKAEDTAVYFCARDYYGSSPYWGQGTLVTVSS
VL: DVLMTQSPDSLAVSLGERATINCKSSQSIVHSNGNTYLEWYQQKPGQSPKLLIYKVSNRFSGVPDRFSGSGSGTDFTLTISSLQAEDVAVYYCFQGSHVPNTFGGGTKVEIK
Regarding B2, the Kd with His-tagged human PD-1 [1] is 8.6 nM; in the assay with His-tagged human PD-1 [2] it was 15 to 19 nM; with His-tagged human PD-1 [3], about 18 nM.

B3: XENP26928 (antibody, V domains shown)
VH: QIQLVQSGSELKKPGASVKVSCKASGYTFTHYGMNWVRQAPGQGLEWMGWINTYTGEPTYADGFTGRFVFSLDTSVSTAYLQISSLKAEDTAVYFCARDYYGSSPYWGQGTLVTVSS
VL: DVLMTQSPDSLAVSLGERATINCKSSQSIVHSEGNTYLEWYQQKPGQSPKLLIYKVSNRFSGVPDRFSGSGSGTDFTLTISSLQAEDVAVYYCFQGSHVPNTFGGGTKVEIK
In the assay with His-tagged human PD-1 [4], B3 yielded a Kd of 333 nM.
